Our source for the Km, kcat and kcat/Km values is article PMC12529880, “Structural mechanisms for cold‐adapted activity of phosphoenolpyruvate carboxykinase” (Protein Science : A Publication of the Protein Society, 2025).

The test system of the data set is T1, C=C(OP(=O)(O)O)C(=O)O.
T1 construct: full length, 622 residues, N-terminal His6-SUMO tag cleaved off with no additional amino acids; codon-optimised gene in pESUMO-Star; E. coli BL21(DE3); EC 4.1.1.32
Briefly: purified protein. Type of data set: biochemical, Polaromonas naphthalenivorans. Conditions: 25 °C, pH 7.5, 1 mM GDP, 50 mM KHCO3, 4 mM MgCl2, 100 μM MnCl2, PEP carboxylation direction.

By Km is commonly meant the substrate concentration at which the rate is half of its maximum. The kcat is the number of substrate molecules converted per active site and unit of time at saturation. Broadly, the kcat/Km is the second-order rate constant that governs catalysis at low substrate concentration.

With “PnPEPCK (Polaromonas naphthalenivorans CJ2)”, the Km is 2500 ± 650 µM, the catalytic constant (kcat) stood at 23 ± 1.4 s⁻¹ and the kcat/Km turned out to be 9200 M⁻¹ s⁻¹.
